{"source": "paper PMC13397619", "parents": {"B1": {"name": "NLV2 TCR alpha chain (CDR3α only) (parent)", "chain": "AGPMKTSYDKVI", "partner": "NLVGMVATV"}}, "data": [{"variants_of": "B1", "test": "T-Switch: Jurkat TCRβ−/− cells expressing a CDR3 saturation-mutagenesis library, stained with two peptide-HLA-A*02:01 tetramers (original and novel peptide) plus anti-CD3, FACS-sorted into four gates, gDNA sequenced", "details": "with HLA-A*02:01 with peptide … (NLV 2-2, the original bait), tetramers 1 µg/mL, 30 min on ice, DP and SW gates expanded about 10 days between rounds ('two to three rounds of selection' in the Methods), gate SP: higher = more of the variant in the gate that binds the original peptide and not the novel one = retained original binding. Fold enrichment of the CDR3 variant in one FACS gate of a two-tetra, unresolved parent, parent is a CDR3 fragment, scale: fold enrichment, numbering: sequential-on-construct, sequence …", "values": [{"variant": "[…] (CDR3 as printed); P3L derived by comparing it with the table's wild-type CDR3 AGPMKTSYDKVI", "enrichment": 0}, {"variant": "[…] (CDR3 as printed); S7Y derived by comparing it with the table's wild-type CDR3 AGPMKTSYDKVI", "enrichment": 0}, {"variant": "[…] (CDR3 as printed); D9Y derived by comparing it with the table's wild-type CDR3 AGPMKTSYDKVI", "enrichment": 0}, {"variant": "[…] (CDR3 as printed); A1W derived by comparing it with the table's wild-type CDR3 AGPMKTSYDKVI", "enrichment": 0}, {"variant": "[…] (CDR3 as printed); G2T derived by comparing it with the table's wild-type CDR3 AGPMKTSYDKVI", "enrichment": 10.1}, {"variant": "[…] (CDR3 as printed); M4I derived by comparing it with the table's wild-type CDR3 AGPMKTSYDKVI", "enrichment": 18.9}, {"variant": "[…] (CDR3 as printed); K5P derived by comparing it with the table's wild-type CDR3 AGPMKTSYDKVI", "enrichment": 9.21}, {"variant": "[…] (CDR3 as printed); I12L derived by comparing it with the table's wild-type CDR3 AGPMKTSYDKVI", "enrichment": 0.259}, {"variant": "[…] (CDR3 as printed); G2M derived by comparing it with the table's wild-type CDR3 AGPMKTSYDKVI", "enrichment": 0.715}, {"variant": "[…] (CDR3 as printed); S7C derived by comparing it with the table's wild-type CDR3 AGPMKTSYDKVI", "enrichment": 0}, {"variant": "[…] (CDR3 as printed); G2H derived by comparing it with the table's wild-type CDR3 AGPMKTSYDKVI", "enrichment": 0}, {"variant": "[…] (CDR3 as printed); K10Q derived by comparing it with the table's wild-type CDR3 AGPMKTSYDKVI", "enrichment": 1.98}, {"variant": "[…] (CDR3 as printed); I12G derived by comparing it with the table's wild-type CDR3 AGPMKTSYDKVI", "enrichment": 0}, {"variant": "[…] (CDR3 as printed); G2L derived by comparing it with the table's wild-type CDR3 AGPMKTSYDKVI", "enrichment": 0}, {"variant": "[…] (CDR3 as printed); S7L derived by comparing it with the table's wild-type CDR3 AGPMKTSYDKVI", "enrichment": 0}, {"variant": "[…] (CDR3 as printed); M4N derived by comparing it with the table's wild-type CDR3 AGPMKTSYDKVI", "enrichment": 0}, {"variant": "[…] (CDR3 as printed); K5A derived by comparing it with the table's wild-type CDR3 AGPMKTSYDKVI", "enrichment": 23.5}, {"variant": "[…] (CDR3 as printed); S7E derived by comparing it with the table's wild-type CDR3 AGPMKTSYDKVI", "enrichment": 0}, {"variant": "[…] (CDR3 as printed); K10M derived by comparing it with the table's wild-type CDR3 AGPMKTSYDKVI", "enrichment": 0}, {"variant": "[…] (CDR3 as printed); K5R derived by comparing it with the table's wild-type CDR3 AGPMKTSYDKVI", "enrichment": 0}, {"variant": "[…] (CDR3 as printed); D9I derived by comparing it with the table's wild-type CDR3 AGPMKTSYDKVI", "enrichment": 0}, {"variant": "[…] (CDR3 as printed); D9N derived by comparing it with the table's wild-type CDR3 AGPMKTSYDKVI", "enrichment": 0}, {"variant": "[…] (CDR3 as printed); I12Q derived by comparing it with the table's wild-type CDR3 AGPMKTSYDKVI", "enrichment": 0}, {"variant": "[…] (CDR3 as printed); P3S derived by comparing it with the table's wild-type CDR3 AGPMKTSYDKVI", "enrichment": 0}, {"variant": "[…] (CDR3 as printed); K10N derived by comparing it with the table's wild-type CDR3 AGPMKTSYDKVI", "enrichment": 0}, {"variant": "[…] (CDR3 as printed); G2A derived by comparing it with the table's wild-type CDR3 AGPMKTSYDKVI", "enrichment": 0.952}, {"variant": "[…] (CDR3 as printed); P3D derived by comparing it with the table's wild-type CDR3 AGPMKTSYDKVI", "enrichment": 0}, {"variant": "[…] (CDR3 as printed); M4E derived by comparing it with the table's wild-type CDR3 AGPMKTSYDKVI", "enrichment": 27}, {"variant": "[…] (CDR3 as printed); P3Q derived by comparing it with the table's wild-type CDR3 AGPMKTSYDKVI", "enrichment": 0}, {"variant": "[…] (CDR3 as printed); P3G derived by comparing it with the table's wild-type CDR3 AGPMKTSYDKVI", "enrichment": 0}, {"variant": "[…] (CDR3 as printed); D9L derived by comparing it with the table's wild-type CDR3 AGPMKTSYDKVI", "enrichment": 0}, {"variant": "[…] (CDR3 as printed); A1S derived by comparing it with the table's wild-type CDR3 AGPMKTSYDKVI", "enrichment": 0.551}, {"variant": "[…] (CDR3 as printed); M4G derived by comparing it with the table's wild-type CDR3 AGPMKTSYDKVI", "enrichment": 0}, {"variant": "[…] (CDR3 as printed); M4S derived by comparing it with the table's wild-type CDR3 AGPMKTSYDKVI", "enrichment": 7.99}, {"variant": "[…] (CDR3 as printed); I12F derived by comparing it with the table's wild-type CDR3 AGPMKTSYDKVI", "enrichment": 2.21}, {"variant": "[…] (CDR3 as printed); K10P derived by comparing it with the table's wild-type CDR3 AGPMKTSYDKVI", "enrichment": 0}, {"variant": "[…] (CDR3 as printed); I12A derived by comparing it with the table's wild-type CDR3 AGPMKTSYDKVI", "enrichment": 2.32}, {"variant": "[…] (CDR3 as printed); G2D derived by comparing it with the table's wild-type CDR3 AGPMKTSYDKVI", "enrichment": 0}, {"variant": "[…] (CDR3 as printed); D9T derived by comparing it with the table's wild-type CDR3 AGPMKTSYDKVI", "enrichment": 0}, {"variant": "[…] (CDR3 as printed); S7R derived by comparing it with the table's wild-type CDR3 AGPMKTSYDKVI", "enrichment": 0}, {"variant": "[…] (CDR3 as printed); D9V derived by comparing it with the table's wild-type CDR3 AGPMKTSYDKVI", "enrichment": 0}, {"variant": "[…] (CDR3 as printed); P3Y derived by comparing it with the table's wild-type CDR3 AGPMKTSYDKVI", "enrichment": 0}, {"variant": "[…] (CDR3 as printed); G2Q derived by comparing it with the table's wild-type CDR3 AGPMKTSYDKVI", "enrichment": 0}, {"variant": "[…] (CDR3 as printed); K5L derived by comparing it with the table's wild-type CDR3 AGPMKTSYDKVI", "enrichment": 0}, {"variant": "[…] (CDR3 as printed); K5T derived by comparing it with the table's wild-type CDR3 AGPMKTSYDKVI", "enrichment": 4.91}, {"variant": "[…] (CDR3 as printed); M4D derived by comparing it with the table's wild-type CDR3 AGPMKTSYDKVI", "enrichment": 0}, {"variant": "[…] (CDR3 as printed); S7G derived by comparing it with the table's wild-type CDR3 AGPMKTSYDKVI", "enrichment": 0}, {"variant": "[…] (CDR3 as printed); D9Q derived by comparing it with the table's wild-type CDR3 AGPMKTSYDKVI", "enrichment": 0}, {"variant": "[…] (CDR3 as printed); K5H derived by comparing it with the table's wild-type CDR3 AGPMKTSYDKVI", "enrichment": 4.24}, {"variant": "[…] (CDR3 as printed); G2F derived by comparing it with the table's wild-type CDR3 AGPMKTSYDKVI", "enrichment": 0}, {"variant": "[…] (CDR3 as printed); K10I derived by comparing it with the table's wild-type CDR3 AGPMKTSYDKVI", "enrichment": 0}, {"variant": "[…] (CDR3 as printed); I12M derived by comparing it with the table's wild-type CDR3 AGPMKTSYDKVI", "enrichment": 0}, {"variant": "[…] (CDR3 as printed); I12W derived by comparing it with the table's wild-type CDR3 AGPMKTSYDKVI", "enrichment": 0}, {"variant": "[…] (CDR3 as printed); D9K derived by comparing it with the table's wild-type CDR3 AGPMKTSYDKVI", "enrichment": 0}, {"variant": "[…] (CDR3 as printed); P3C derived by comparing it with the table's wild-type CDR3 AGPMKTSYDKVI", "enrichment": 0}, {"variant": "[…] (CDR3 as printed); M4T derived by comparing it with the table's wild-type CDR3 AGPMKTSYDKVI", "enrichment": 12.4}, {"variant": "[…] (CDR3 as printed); K10V derived by comparing it with the table's wild-type CDR3 AGPMKTSYDKVI", "enrichment": 0}, {"variant": "[…] (CDR3 as printed); M4W derived by comparing it with the table's wild-type CDR3 AGPMKTSYDKVI", "enrichment": 0}, {"variant": "[…] (CDR3 as printed); I12V derived by comparing it with the table's wild-type CDR3 AGPMKTSYDKVI", "enrichment": 11.6}, {"variant": "[…] (CDR3 as printed); M4H derived by comparing it with the table's wild-type CDR3 AGPMKTSYDKVI", "enrichment": 2.65}, {"variant": "[…] (CDR3 as printed); K10C derived by comparing it with the table's wild-type CDR3 AGPMKTSYDKVI", "enrichment": 0.162}, {"variant": "[…] (CDR3 as printed); G2R derived by comparing it with the table's wild-type CDR3 AGPMKTSYDKVI", "enrichment": 0}, {"variant": "[…] (CDR3 as printed); G2W derived by comparing it with the table's wild-type CDR3 AGPMKTSYDKVI", "enrichment": 0}, {"variant": "[…] (CDR3 as printed); S7W derived by comparing it with the table's wild-type CDR3 AGPMKTSYDKVI", "enrichment": 0}, {"variant": "[…] (CDR3 as printed); K5S derived by comparing it with the table's wild-type CDR3 AGPMKTSYDKVI", "enrichment": 4.22}, {"variant": "[…] (CDR3 as printed); T6I derived by comparing it with the table's wild-type CDR3 AGPMKTSYDKVI", "enrichment": 9.21}, {"variant": "[…] (CDR3 as printed); A1Y derived by comparing it with the table's wild-type CDR3 AGPMKTSYDKVI", "enrichment": 0.416}, {"variant": "[…] (CDR3 as printed); K10L derived by comparing it with the table's wild-type CDR3 AGPMKTSYDKVI", "enrichment": 0}, {"variant": "[…] (CDR3 as printed); G2P derived by comparing it with the table's wild-type CDR3 AGPMKTSYDKVI", "enrichment": 0.351}, {"variant": "[…] (CDR3 as printed); K10A derived by comparing it with the table's wild-type CDR3 AGPMKTSYDKVI", "enrichment": 0}, {"variant": "[…] (CDR3 as printed); K5V derived by comparing it with the table's wild-type CDR3 AGPMKTSYDKVI", "enrichment": 1.08}, {"variant": "[…] (CDR3 as printed); S7T derived by comparing it with the table's wild-type CDR3 AGPMKTSYDKVI", "enrichment": 0}, {"variant": "[…] (CDR3 as printed); P3F derived by comparing it with the table's wild-type CDR3 AGPMKTSYDKVI", "enrichment": 0}, {"variant": "[…] (CDR3 as printed); G2S derived by comparing it with the table's wild-type CDR3 AGPMKTSYDKVI", "enrichment": 0}, {"variant": "[…] (CDR3 as printed); D9G derived by comparing it with the table's wild-type CDR3 AGPMKTSYDKVI", "enrichment": 0}, {"variant": "[…] (CDR3 as printed); K5Y derived by comparing it with the table's wild-type CDR3 AGPMKTSYDKVI", "enrichment": 0}, {"variant": "[…] (CDR3 as printed); K5C derived by comparing it with the table's wild-type CDR3 AGPMKTSYDKVI", "enrichment": 0}, {"variant": "[…] (CDR3 as printed); D9A derived by comparing it with the table's wild-type CDR3 AGPMKTSYDKVI", "enrichment": 0}, {"variant": "[…] (CDR3 as printed); P3H derived by comparing it with the table's wild-type CDR3 AGPMKTSYDKVI", "enrichment": 0}, {"variant": "[…] (CDR3 as printed); A1V derived by comparing it with the table's wild-type CDR3 AGPMKTSYDKVI", "enrichment": 0}, {"variant": "[…] (CDR3 as printed); I12R derived by comparing it with the table's wild-type CDR3 AGPMKTSYDKVI", "enrichment": 0}, {"variant": "[…] (CDR3 as printed); D9S derived by comparing it with the table's wild-type CDR3 AGPMKTSYDKVI", "enrichment": 0}, {"variant": "[…] (CDR3 as printed); P3I derived by comparing it with the table's wild-type CDR3 AGPMKTSYDKVI", "enrichment": 1.59}]}]}
